Data from the supplement of paper PMC10065799, “High-throughput profiling of sequence recognition by tyrosine kinases and SH2 domains using bacterial peptide display” (eLife, 2023).

What was measured:
Jak2 = Jak2 (UniProt O60674); test: phosphorylation enrichment, bacterial display (enrichment ratio); higher = better substrate or ligand; peptides without Tyr show the background
FGFR1 = FGFR1 (UniProt P11362); test: as above
AncSZ = test: as above
Fyn = Fyn (UniProt P06241); test: as above
Hck = Hck (UniProt P08631); test: as above
EPHB1 = EPHB1 (UniProt P54762); test: as above
c-Abl (mouse) = test: as above
FGFR3 = FGFR3 (UniProt P22607); test: as above
Fes = Fes (UniProt P07332); test: as above
Fer (mouse) = test: as above
EPHB2 = EPHB2 (UniProt P29323); test: as above
MERTK = MERTK (UniProt Q12866); test: as above
c-Src = test: as above
c-Src SH2 = test: SH2 binding enrichment of the phosphorylated peptide, bacterial display (enrichment ratio); higher = better substrate or ligand; peptides without Tyr show the background
Grb2 SH2 = Grb2 SH2 (UniProt P62993); test: as above
SHP2-C SH2 = test: as above
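Throughout, for SH2 binding enrichment of the phosphorylated peptide, bacterial display: peptide library displayed on the E. coli surface as eCPX fusions, selected cells deep-sequenced, score is each peptide's frequency after selection divided by its frequency in the input.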
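Throughout, for phosphorylation enrichment, bacterial display: 11-residue human phosphosite peptides and single-mutation variants displayed on the E. coli surface, counted by deep sequencing, each peptide's frequency after selection divided by its frequency in the unselected input library; frequency after pTyr selection over input frequency; kinase dosed for 20-30% of maximal phosphorylation in three min.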

Sequence of Hck (P08631 whole entry, looked up): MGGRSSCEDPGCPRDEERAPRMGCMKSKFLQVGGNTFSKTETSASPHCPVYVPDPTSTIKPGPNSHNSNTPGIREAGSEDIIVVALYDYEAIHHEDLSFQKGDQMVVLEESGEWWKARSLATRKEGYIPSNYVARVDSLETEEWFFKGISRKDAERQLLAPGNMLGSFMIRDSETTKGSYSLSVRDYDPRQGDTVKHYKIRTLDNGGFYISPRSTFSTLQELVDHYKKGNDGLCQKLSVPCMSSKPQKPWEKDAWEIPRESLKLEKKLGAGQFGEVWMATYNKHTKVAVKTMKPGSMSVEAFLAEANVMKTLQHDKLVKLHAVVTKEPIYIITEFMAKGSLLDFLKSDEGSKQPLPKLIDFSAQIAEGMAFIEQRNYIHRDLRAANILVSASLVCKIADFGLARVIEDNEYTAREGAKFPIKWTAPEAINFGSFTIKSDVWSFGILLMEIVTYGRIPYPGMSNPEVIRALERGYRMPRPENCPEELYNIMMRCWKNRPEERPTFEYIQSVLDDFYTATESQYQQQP
Sequence of EPHB2 (P29323 whole entry, looked up): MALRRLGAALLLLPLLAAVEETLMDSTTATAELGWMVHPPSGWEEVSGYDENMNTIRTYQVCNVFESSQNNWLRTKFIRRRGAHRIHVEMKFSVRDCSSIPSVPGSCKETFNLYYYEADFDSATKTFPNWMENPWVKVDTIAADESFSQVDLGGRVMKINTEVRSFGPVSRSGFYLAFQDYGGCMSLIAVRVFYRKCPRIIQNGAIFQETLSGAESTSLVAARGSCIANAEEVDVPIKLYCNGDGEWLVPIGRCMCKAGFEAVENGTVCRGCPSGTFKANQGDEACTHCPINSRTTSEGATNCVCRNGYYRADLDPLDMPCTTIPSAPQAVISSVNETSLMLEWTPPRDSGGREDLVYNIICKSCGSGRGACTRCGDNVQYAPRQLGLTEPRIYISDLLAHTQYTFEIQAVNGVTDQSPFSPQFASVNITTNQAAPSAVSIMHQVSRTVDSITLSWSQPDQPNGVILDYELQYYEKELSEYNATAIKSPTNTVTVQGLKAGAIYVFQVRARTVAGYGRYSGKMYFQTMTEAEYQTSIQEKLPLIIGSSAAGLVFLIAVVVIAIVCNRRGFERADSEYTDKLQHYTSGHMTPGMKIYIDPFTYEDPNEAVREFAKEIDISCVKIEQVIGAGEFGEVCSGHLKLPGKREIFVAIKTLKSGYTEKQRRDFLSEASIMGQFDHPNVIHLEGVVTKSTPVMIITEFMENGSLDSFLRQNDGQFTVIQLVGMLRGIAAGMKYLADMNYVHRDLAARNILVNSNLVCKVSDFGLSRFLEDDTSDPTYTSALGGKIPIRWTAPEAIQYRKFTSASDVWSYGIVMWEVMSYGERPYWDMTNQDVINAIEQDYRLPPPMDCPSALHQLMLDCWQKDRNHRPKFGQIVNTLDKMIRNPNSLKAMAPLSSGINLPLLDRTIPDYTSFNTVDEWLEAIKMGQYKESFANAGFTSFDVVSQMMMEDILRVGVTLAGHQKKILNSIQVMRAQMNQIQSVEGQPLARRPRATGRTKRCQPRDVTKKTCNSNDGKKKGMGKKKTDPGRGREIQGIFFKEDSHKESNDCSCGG
Sequence of FGFR3 (P22607 whole entry, looked up): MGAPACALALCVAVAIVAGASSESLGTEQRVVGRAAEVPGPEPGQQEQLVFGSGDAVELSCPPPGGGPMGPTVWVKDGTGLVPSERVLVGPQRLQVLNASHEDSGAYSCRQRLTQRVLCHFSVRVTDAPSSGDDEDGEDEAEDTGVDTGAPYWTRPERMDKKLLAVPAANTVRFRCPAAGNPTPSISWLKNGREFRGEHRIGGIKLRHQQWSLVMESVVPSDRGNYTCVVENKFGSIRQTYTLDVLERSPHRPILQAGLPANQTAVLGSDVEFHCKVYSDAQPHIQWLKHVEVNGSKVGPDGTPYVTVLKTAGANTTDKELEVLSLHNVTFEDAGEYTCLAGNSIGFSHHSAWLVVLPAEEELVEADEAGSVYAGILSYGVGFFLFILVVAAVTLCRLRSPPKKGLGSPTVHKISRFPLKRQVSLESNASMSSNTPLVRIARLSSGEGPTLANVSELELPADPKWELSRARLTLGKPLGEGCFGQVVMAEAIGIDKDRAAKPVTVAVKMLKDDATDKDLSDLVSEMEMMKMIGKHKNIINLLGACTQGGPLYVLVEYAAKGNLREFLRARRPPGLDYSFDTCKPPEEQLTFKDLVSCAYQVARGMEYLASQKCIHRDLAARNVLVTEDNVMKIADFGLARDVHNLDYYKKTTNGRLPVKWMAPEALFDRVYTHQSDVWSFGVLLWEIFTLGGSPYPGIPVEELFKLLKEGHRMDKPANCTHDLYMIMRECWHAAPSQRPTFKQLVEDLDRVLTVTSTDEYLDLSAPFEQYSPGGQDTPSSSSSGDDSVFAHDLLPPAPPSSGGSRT
Sequence of MERTK (Q12866 whole entry, looked up): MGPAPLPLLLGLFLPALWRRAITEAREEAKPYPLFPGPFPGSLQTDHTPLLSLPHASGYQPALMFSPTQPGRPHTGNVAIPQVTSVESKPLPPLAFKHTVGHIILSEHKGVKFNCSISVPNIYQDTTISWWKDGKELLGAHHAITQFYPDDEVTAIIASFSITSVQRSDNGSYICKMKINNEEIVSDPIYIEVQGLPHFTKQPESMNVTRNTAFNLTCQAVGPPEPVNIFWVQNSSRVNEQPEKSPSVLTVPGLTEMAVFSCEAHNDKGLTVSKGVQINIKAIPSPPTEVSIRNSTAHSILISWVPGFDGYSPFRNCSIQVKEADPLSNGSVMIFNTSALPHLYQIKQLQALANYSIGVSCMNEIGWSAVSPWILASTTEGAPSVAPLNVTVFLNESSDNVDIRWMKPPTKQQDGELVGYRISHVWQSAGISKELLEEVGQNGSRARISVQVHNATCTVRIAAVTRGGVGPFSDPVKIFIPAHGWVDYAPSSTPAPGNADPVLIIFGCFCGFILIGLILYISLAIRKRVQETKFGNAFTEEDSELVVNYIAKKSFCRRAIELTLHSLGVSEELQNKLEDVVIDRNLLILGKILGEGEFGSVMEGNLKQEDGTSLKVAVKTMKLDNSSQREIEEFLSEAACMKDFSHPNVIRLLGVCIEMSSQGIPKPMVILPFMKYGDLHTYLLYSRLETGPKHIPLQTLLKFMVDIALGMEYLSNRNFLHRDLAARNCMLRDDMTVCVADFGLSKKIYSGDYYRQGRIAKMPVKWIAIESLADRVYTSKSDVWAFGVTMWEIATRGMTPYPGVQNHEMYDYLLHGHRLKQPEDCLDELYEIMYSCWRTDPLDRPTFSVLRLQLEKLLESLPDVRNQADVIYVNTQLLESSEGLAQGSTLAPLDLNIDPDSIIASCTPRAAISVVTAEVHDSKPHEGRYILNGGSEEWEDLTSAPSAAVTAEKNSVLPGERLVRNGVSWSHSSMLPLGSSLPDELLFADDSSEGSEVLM
Sequence of EPHB1 (P54762 whole entry, looked up): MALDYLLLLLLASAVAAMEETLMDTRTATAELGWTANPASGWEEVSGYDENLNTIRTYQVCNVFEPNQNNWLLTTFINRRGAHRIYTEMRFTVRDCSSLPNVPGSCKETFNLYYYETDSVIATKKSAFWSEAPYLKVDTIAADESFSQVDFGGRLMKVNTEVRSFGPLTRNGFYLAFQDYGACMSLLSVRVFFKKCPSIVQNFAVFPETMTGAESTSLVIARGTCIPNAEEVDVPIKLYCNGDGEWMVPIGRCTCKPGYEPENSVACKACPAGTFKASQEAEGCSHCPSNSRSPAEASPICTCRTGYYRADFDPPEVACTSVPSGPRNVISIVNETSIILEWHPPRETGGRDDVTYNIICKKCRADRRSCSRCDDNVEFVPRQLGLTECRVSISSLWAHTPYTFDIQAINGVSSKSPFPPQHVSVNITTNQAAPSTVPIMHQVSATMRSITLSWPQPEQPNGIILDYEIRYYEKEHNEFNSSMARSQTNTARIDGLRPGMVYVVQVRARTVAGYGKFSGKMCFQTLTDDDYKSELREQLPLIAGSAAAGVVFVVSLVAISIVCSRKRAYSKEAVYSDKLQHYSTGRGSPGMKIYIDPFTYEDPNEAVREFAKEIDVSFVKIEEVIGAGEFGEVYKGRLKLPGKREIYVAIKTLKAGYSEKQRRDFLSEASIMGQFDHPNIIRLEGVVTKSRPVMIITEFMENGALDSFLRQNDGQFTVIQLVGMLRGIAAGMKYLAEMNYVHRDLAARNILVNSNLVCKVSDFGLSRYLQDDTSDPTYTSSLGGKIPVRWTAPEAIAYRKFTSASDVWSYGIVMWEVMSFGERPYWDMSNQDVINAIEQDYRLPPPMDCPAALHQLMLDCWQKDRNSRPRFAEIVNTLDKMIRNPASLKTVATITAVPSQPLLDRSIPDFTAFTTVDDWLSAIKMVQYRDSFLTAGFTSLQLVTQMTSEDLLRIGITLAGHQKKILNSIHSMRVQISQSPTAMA
Sequence of Grb2 SH2 (P62993 whole entry, looked up): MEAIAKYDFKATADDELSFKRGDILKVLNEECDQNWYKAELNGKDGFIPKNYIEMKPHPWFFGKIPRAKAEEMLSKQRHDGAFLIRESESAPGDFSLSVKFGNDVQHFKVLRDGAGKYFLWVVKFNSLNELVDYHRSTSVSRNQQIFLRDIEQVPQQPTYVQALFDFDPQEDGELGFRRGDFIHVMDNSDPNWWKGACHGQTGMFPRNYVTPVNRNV

Sequence | phosphorylation enrichment (Jak2) | phosphorylation enrichment (FGFR1) | phosphorylation enrichment (AncSZ) | phosphorylation enrichment (Fyn) | phosphorylation enrichment (Hck) | phosphorylation enrichment (EPHB1) | phosphorylation enrichment (c-Abl (mouse)) | phosphorylation enrichment (FGFR3) | phosphorylation enrichment (Fes) | phosphorylation enrichment (Fer (mouse)) | phosphorylation enrichment (EPHB2) | phosphorylation enrichment (MERTK) | phosphorylation enrichment (c-Src) | SH2 binding enrichment (c-Src SH2) | SH2 binding enrichment (Grb2 SH2) | SH2 binding enrichment (SHP2-C SH2)
AIYWRYSKFFD [SH3PXD2B_Y45_R43W] | 1.07 | 0.57 | 1.3 | 1.49 | 0.886 | 0.982 | 1.1 | 0.804 | 1.05 | 0.526 | 0.681 | 0.421 | 0.97 | 0.466 | 0.794 | 0.645
KKYPDYIQIAR [SGMS2_Y59_M64R] | 1.28 | 3.97 | 0.98 | 0.367 | 0.48 | 7.96 | 0.702 | 2.55 | 0.984 | 0.388 | 1.22 | 0.392 | 0.47 | 0.858 | 1.23 | 0.808
FVTCTYSPALN [TP53_Y126_S121F] | 1.07 | 0.464 | 1.29 | 0.449 | 0.516 | 0.603 | 0.828 | 0.71 | 1.32 | 0.557 | 0.501 | 0.346 | 0.535 | 0.517 | 0.887 | 0.655
KRFAFYRDSPR [FOXE3_Y108_E103K] | 0.482 | 0.443 | 0.538 | 0.446 | 0.387 | 0.327 | 0.526 | 0.479 | 0.643 | 0.421 | 0.387 | 0.437 | 0.414 | 0.81 | 1.14 | 0.974
NNDLCYWVPEL [IARS1_Y434] | 3.15 | 5.92 | 2.86 | 1.92 | 2.13 | 4.43 | 8.63 | 5.02 | 1.22 | 0.643 | 5.52 | 4.55 | 2.17 | 0.514 | 0.813 | 0.791
AEARMYGVLPW [PLP1_Y207_D203E] | 0.65 | 0.502 | 0.767 | 7.15 | 7.47 | 0.692 | 0.989 | 0.559 | 0.811 | 0.477 | 1.05 | 1.54 | 4.81 | 0.46 | 0.769 | 0.871
TVLEHYRRTHC [MYBPC3_Y1119] | 0.606 | 0.438 | 0.526 | 0.52 | 0.5 | 0.468 | 0.532 | 0.519 | 0.672 | 0.408 | 0.681 | 0.569 | 0.395 | 0.713 | 1.05 | 1.16
IDDLEYLHSQG [STK11_Y166_G163D] | 0.865 | 0.676 | 1.22 | 0.581 | 0.531 | 0.638 | 0.636 | 0.737 | 1.24 | 0.61 | 0.777 | 0.572 | 0.578 | 0.471 | 0.615 | 0.57
RGVAHYILQTF [SLC39A4_Y359_T357A] | 1.33 | 0.456 | 1.48 | 0.636 | 0.685 | 0.718 | 1.13 | 0.628 | 1.34 | 0.554 | 0.724 | 0.583 | 0.743 | 1.16 | 1.73 | 1.71
LDCNEYFRDLN [HPRT1_Y198_Y195C] | 1.5 | 0.966 | 1.82 | 0.906 | 0.911 | 0.933 | 1.15 | 1.34 | 1.73 | 0.697 | 0.922 | 0.687 | 0.487 | 0.704 | 1.07 | 0.927
KTVQDYLEKFY [MMP8_Y36] | 1.21 | 0.627 | 1.36 | 0.708 | 0.539 | 0.673 | 1.23 | 0.707 | 1.31 | 0.562 | 0.711 | 0.517 | 0.674 | 0.51 | 1.13 | 0.686
SLNEEYAKNKT [MSH2_Y563_T564A] | 0.791 | 0.472 | 0.765 | 0.413 | 0.362 | 0.394 | 0.674 | 0.538 | 0.877 | 0.318 | 0.579 | 0.43 | 0.45 | 0.482 | 0.949 | 0.759
GCVRMYELVHR [GLE1_Y135] | 1.01 | 0.498 | 1.07 | 0.599 | 1.64 | 7.65 | 0.754 | 0.71 | 1.28 | 4.34 | 3.69 | 2.95 | 0.761 | 2.25 | 1.06 | 0.908
VCHELYNTIRD [PBRM1_Y54] | 0.761 | 0.489 | 0.898 | 0.718 | 3.01 | 0.546 | 0.978 | 0.683 | 0.975 | 0.683 | 0.608 | 0.448 | 1.38 | 3.75 | 0.766 | 0.805
NKPTVYGVSPN [ABL1_Y226] | 0.478 | 0.376 | 0.547 | 0.55 | 0.603 | 0.399 | 0.67 | 0.446 | 0.623 | 0.443 | 0.373 | 0.395 | 0.659 | 0.501 | 0.899 | 0.523
